The source of these data is publication PMC9482650, “Quantitative fragmentomics allow affinity mapping of interactomes” (Nature Communications, 2022).

Targets include DLG1_2, Q12959; DLG4_2, P78352; FRMPD2_3, Q68DX3; Inadl_3, Q8NI35; Inadl_5, Q8NI35; LIMK2, P53671; PDLIM1, O00151; TJP1_3, Q07157.
Holding throughout (test): holdup assay
Design in all cases: key: below the threshold = too weak to quantify, mostly under pKd 3.1 to 4
What all share (details): plain residues with an end cap or a label only (N-terminal biotin on a linker: ado-ado)

A further assay concerns the target T1, APBA2_2, Q99767.
T1 sequence (Q99767 654-744, limits assumed, looked up): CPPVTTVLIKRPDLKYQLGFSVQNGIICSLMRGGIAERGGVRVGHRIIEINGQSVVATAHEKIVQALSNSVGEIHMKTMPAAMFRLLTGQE

Another assay concerns the target T2, ARHGAP21, Q5T5U3.
T2 sequence (Q5T5U3 45-169, limits assumed, looked up): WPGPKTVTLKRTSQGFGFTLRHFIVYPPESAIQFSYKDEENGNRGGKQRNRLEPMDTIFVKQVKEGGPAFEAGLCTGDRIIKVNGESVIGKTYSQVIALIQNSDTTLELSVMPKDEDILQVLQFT

The next assay concerns the target T3, DLG3_2, Q92796.
T3 sequence (Q92796 221-321, limits assumed, looked up): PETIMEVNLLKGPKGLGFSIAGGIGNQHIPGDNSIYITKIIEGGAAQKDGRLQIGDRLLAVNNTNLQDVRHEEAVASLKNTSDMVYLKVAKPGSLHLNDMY

The next assay addresses T4, DVL3, Q92997.
T4 sequence (Q92997 244-331, limits assumed, looked up): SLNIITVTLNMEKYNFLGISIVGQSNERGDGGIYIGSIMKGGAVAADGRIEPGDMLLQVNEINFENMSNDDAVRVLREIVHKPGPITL

The target of the next assay is T5, HTRA4, P83105.
T5 sequence (P83105 378-476, limits assumed, looked up): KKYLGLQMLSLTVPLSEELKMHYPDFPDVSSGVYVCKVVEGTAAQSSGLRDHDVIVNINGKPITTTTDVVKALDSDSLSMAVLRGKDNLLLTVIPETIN

A further assay concerns the target T6, LNX2_3, Q8N448.
T6 sequence (Q8N448 463-564, limits assumed, looked up): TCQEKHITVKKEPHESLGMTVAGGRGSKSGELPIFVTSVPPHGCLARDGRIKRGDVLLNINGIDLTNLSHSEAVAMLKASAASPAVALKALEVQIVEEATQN

The next assay concerns the target T7, MPP6, Q9NZW5.
T7 sequence (Q9NZW5 125-219, limits assumed, looked up): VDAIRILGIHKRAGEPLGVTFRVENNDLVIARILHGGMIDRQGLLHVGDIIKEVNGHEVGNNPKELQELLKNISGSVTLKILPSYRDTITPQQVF

A further assay has as its target T8, NHERF3_1, Q5T2W1.
T8 sequence (Q5T2W1 4-100, limits assumed, looked up): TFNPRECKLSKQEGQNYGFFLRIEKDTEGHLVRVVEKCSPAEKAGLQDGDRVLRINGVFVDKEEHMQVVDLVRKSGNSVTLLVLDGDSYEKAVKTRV

The target of a further assay is T9, PDZD2_2, O15018.
T9 sequence (O15018 329-429, limits assumed, looked up): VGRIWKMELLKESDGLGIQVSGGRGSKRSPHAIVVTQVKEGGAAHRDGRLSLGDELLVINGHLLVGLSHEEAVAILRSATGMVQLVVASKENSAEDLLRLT

Another assay addresses T10, RADIL, Q96JH8.
T10 sequence (Q96JH8 971-1071, limits assumed, looked up): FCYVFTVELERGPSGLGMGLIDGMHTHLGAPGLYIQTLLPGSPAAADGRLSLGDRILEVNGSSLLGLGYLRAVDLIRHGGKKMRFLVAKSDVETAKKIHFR

The target in the next assay is T11, RAPGEF6, Q8TEU7.
T11 sequence (Q8TEU7 525-625, limits assumed, looked up): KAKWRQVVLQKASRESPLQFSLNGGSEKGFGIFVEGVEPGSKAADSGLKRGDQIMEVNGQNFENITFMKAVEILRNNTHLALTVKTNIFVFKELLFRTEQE

The next assay addresses T12, SNTB1, Q13884.
T12 sequence (Q13884 107-205, limits assumed, looked up): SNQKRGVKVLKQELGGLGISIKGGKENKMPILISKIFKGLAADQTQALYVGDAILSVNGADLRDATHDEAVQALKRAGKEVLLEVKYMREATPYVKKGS

The next assay addresses T13, SNTG1, Q9NSN8.
T13 sequence (Q9NSN8 52-150, limits assumed, looked up): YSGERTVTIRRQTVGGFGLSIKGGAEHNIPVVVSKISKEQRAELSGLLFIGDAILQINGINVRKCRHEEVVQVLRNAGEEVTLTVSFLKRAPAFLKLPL

Another assay addresses T14, TIAM2, Q8IVF5.
T14 sequence (Q8IVF5 885-986, limits assumed, looked up): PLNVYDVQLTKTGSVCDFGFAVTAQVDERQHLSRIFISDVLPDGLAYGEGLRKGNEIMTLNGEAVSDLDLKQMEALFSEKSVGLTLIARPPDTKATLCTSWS

Chain of TJP1_3, Q07157 (Q07157 416-512): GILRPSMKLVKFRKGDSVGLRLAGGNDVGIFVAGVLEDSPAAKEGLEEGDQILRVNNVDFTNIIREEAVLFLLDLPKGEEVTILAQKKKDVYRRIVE
Chain of Inadl_3, Q8NI35 (Q8NI35 359-469): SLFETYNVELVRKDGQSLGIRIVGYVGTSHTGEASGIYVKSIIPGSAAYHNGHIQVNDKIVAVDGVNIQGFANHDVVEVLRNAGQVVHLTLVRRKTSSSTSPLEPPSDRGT
Chain of DLG1_2, Q12959 (Q12959 314-412): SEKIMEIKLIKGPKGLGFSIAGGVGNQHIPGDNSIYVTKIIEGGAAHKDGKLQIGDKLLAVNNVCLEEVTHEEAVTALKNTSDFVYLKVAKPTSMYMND
Chain of Inadl_5, Q8NI35 (Q8NI35 673-780): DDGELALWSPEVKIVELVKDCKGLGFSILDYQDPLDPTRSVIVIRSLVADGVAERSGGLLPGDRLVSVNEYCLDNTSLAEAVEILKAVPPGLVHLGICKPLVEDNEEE
Chain of LIMK2, P53671 (P53671 143-248): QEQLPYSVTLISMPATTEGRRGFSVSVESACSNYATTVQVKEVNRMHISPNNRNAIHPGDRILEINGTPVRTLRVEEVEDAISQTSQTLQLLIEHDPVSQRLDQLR
Chain of PDLIM1, O00151 (O00151 1-87): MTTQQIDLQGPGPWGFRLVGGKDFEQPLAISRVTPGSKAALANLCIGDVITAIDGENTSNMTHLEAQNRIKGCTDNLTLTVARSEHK
Chain of FRMPD2_3, Q68DX3 (Q68DX3 1073-1166): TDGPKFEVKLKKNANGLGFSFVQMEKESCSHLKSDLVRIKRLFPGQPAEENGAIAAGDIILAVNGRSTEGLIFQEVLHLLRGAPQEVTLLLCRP
Chain of DLG4_2, P78352 (P78352 155-259): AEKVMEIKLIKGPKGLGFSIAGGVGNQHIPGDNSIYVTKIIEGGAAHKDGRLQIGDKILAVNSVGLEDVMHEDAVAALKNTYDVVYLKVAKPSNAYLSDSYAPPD

NKSEPFLTWL [WWTR1, Q9GZV5]: the pKd result with APBA2_2, Q99767 was “below the threshold”; in the assay with ARHGAP21, Q5T5U3, 4.88; with DLG1_2, Q12959, 3.59; in the assay with DLG3_2, Q92796, “below the threshold”; with DLG4_2, P78352, 3.54; with DVL3, Q92997 it was 4.54. Further, the pKd result is “below the threshold” with FRMPD2_3, Q68DX3; 4.6 with HTRA4, P83105; 4.35 in the assay with Inadl_3, Q8NI35; “below the threshold” with Inadl_5, Q8NI35; “below the threshold” with LIMK2, P53671; “below the threshold” with LNX2_3, Q8N448. In addition, the pKd in the assay with MPP6, Q9NZW5 is 3.9; in the assay with NHERF3_1, Q5T2W1, 5.05; with PDLIM1, O00151, 4.13; with PDZD2_2, O15018 it was 5.89; with RADIL, Q96JH8, 5.57; in the assay with RAPGEF6, Q8TEU7 it was “below the threshold”. In addition, the pKd is 3.79 in the assay with SNTB1, Q13884; “below the threshold” in the assay with SNTG1, Q9NSN8; 3.65 with TIAM2, Q8IVF5; “below the threshold” in the assay with TJP1_3, Q07157.

On to VISSDDLTEL [CAPN6, Q9Y6Q1], for which the pKd entry with APBA2_2, Q99767 was “below the threshold”; with ARHGAP21, Q5T5U3 it was “below the threshold”; with DLG1_2, Q12959, “below the threshold”; with DLG3_2, Q92796 it was 3.99; in the assay with DLG4_2, P78352, “below the threshold”; in the assay with DVL3, Q92997 it was “below the threshold”. The pKd result was “below the threshold” with FRMPD2_3, Q68DX3; 3.92 with HTRA4, P83105; “below the threshold” with Inadl_3, Q8NI35; “below the threshold” with Inadl_5, Q8NI35; “below the threshold” in the assay with LIMK2, P53671; “below the threshold” with LNX2_3, Q8N448. Besides, the pKd result with MPP6, Q9NZW5 was “below the threshold”; in the assay with NHERF3_1, Q5T2W1, 3.67; in the assay with PDLIM1, O00151 it was “below the threshold”; with PDZD2_2, O15018, 4.39; in the assay with RADIL, Q96JH8, “below the threshold”; with RAPGEF6, Q8TEU7, “below the threshold”. Besides, the pKd result with SNTB1, Q13884 was “below the threshold”; in the assay with SNTG1, Q9NSN8 it was “below the threshold”; with TIAM2, Q8IVF5, 3.96; in the assay with TJP1_3, Q07157 it was “below the threshold”.

RGKNRRQSIF [CDK18, Q07002]: the pKd in the assay with APBA2_2, Q99767 was 3.5; with ARHGAP21, Q5T5U3, “below the threshold”; in the assay with DLG1_2, Q12959, “below the threshold”; with DLG3_2, Q92796, 4.19; with DLG4_2, P78352, 3.75; in the assay with DVL3, Q92997 it was “below the threshold”. For the same molecule, the pKd result with FRMPD2_3, Q68DX3 is given as “below the threshold”; with HTRA4, P83105, “below the threshold”; with Inadl_3, Q8NI35, “below the threshold”; with Inadl_5, Q8NI35, “below the threshold”; with LIMK2, P53671, “below the threshold”; with LNX2_3, Q8N448, “below the threshold”. Also, the pKd entry was “below the threshold” in the assay with MPP6, Q9NZW5; 3.85 with NHERF3_1, Q5T2W1; “below the threshold” with PDLIM1, O00151; “below the threshold” with PDZD2_2, O15018; “below the threshold” with RADIL, Q96JH8; 3.67 in the assay with RAPGEF6, Q8TEU7. The negative-log Kd (pKd) result with SNTB1, Q13884 is on record as “below the threshold”; in the assay with SNTG1, Q9NSN8, “below the threshold”; in the assay with TIAM2, Q8IVF5 it was “below the threshold”; in the assay with TJP1_3, Q07157 it was “below the threshold”.

In general, pKd refers to −log10 of the Kd, conventionally taken in molar units.
